# Source: US8604172B2, “Humanized antibody compositions and methods for binding lysophosphatidic acid” (Lpath, Inc., priority 2009, dated 2013)
# Test system: IL-8 in Caki-1 cells
# Assay: LPA-induced IL-8 production in Caki-1 cells
# Format: cell-based, human
# Settings: 18:1 LPA (0.2 mM), 0.1-30 μg/mL mAb, 24 h
# Method: Three anti-LPA mAbs (B3, B7 and B58) were tested for their abilities to reduce in vitro IL-8 production compared to a non-specific antibody (NS). Caki-1 cells were seeded in 96 well plates and grown to confluency. After overnight serum starvation, cells were treated with 18:1 LPA (0.2 mM) with or without anti-LPA mAb B3, B7, B58 or NS (Non-Specific). After 24 h, cultured supernatants of renal cancer cells (Caki-1), treated with or without LPA and in presence of increasing concentrations of the anti-LPA mAbs B3, B7 and B58, were collected and analyzed for IL-8 levels using a commercially available ELISA kit (Human Quantikine Kit, R&D Systems, Minneapolis, Minn.). […] The inhibition of IL-8 release by the anti-LPA mAbs was also observed in other cancerous cell lines such as the pancreatic cell line Panc-1.
molecule,measurement,value
"LT3000: Murine anti-LPA monoclonal antibody clone B7, IgG1k, renamed Lpathomab, also known as LT3000; hybridoma 504B7.1, ATCC PTA-8420 (antibody, V domains shown) VH: QVQLQQSGAELVRPGTSVKVSCKASGYGFINYLIEWIKQRPGQGLEWIGLINPGSDYTNYNENFKGKATLTADKSSSTAYMHLSSLTSEDSAVYFCARRFGYYGSGNYFDYWGQGTTLTVSS VL: DVVMTQTPLSLPVSLGDQASISCTSGQSLVHINGNTYLHWYLQKPGQSPKLLIYKVSNLFSGVPDRFSGSGSGTDFTLKISRVEAEDLGVYFCSQSTHFPFTFGTGTKLEIK",IL-8 expression,significantly reduced in a dose-dependent manner
